The results in this text go back to the nanobody polyreactivity screen of Harvey et al. (2022).

A short description of this series: yeast display, Sf9 membrane polyspecificity reagent, FACS + sequencing; frameworks hold sequencing errors. The essentials:
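In a synthetic yeast display library (Saccharomyces cerevisiae BJ5465), nanobody expression was induced with galactose for 36–48 hours. FACS gates were set low and high (top ~1%) using anti-HA fluorescence for expression and streptavidin fluorescence for binding of the Sf9 membrane reagent. Each polyreactivity label is drawn from the gate of origin.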
Regarding “QVQLVESGGGLVQAGGSLRLSCAASGFIFYSYAMGWYRQAPGKEREFVASICGGTGSTYYADSVKGRFTISRDNAKNTVYLQMNSLIPEDTAVYYCNARIVHSFRYDYWGQGTQVTVSS”, the “polyreactivity (PSR sort gate)” value is on record as “low polyreactivity”.
As for “QVQLVESGGGLVQAGGSLRLSCAASGFIFYSYAMGWYRQAPGKERELVAAISGSGGSTYYADSVKGRFTISRDNAKNTVYLQMNSLKPEDTAVYYCAAALTFRMDYWGQGTQVTVSS”, the “polyreactivity (PSR sort gate)” value is given as “high polyreactivity”.
Regarding “QVQLVESGGGLVQAGGSLRLSCAASGFIFYSYAMGWYRQAPGKERELVAAISWSGGRTYYADSVKGRFTISRDNAKNTVYLQMNSLKPEDTAVYYCNADDYSFSFTVPYYIEYVYWGQGTQVTVSS”, the “polyreactivity (PSR sort gate)” value is reported as “high polyreactivity”.
Consider “QVQLVESGGGLVQAGGSLRLSCAASGFIFYSYDMGWYRQAPGKERELVAAIDSRGVNTYYADSVKGRFTISRDNAKNTVYLQMNILKPEDTAVYYCNVDAITWWDWEDFDYWGQGTQVTVSS”, for which the “polyreactivity (PSR sort gate)” value is “low polyreactivity”.
Then “QVQLVESGGGLVQAGGSLRLSCAASGFIFYTNAMGWYRQAPGKERELVAAISRGGTTYYADSVKGRFTISRDNAKNTVYLQMNSLKPEDTAVYYCAKAWPDHWYSRYDYWGQGTQVTVSS”, with “low polyreactivity”.
As to “QVQLVESGGGLVQAGGSLRLSCAASGFIFYTYAMGWYRQAPGKERELVAAIRRGGSTYYADSVKGRFTISRDNAKNTVYLQMNSLKPEDTAVYYCNARIPYKAKTNHFGYWGQGTQVTVSS”, the “polyreactivity (PSR sort gate)” value is “high polyreactivity”.
For the sequence “QVQLVESGGGLVQAGGSLRLSCAASGFIFYYNAMGWYRQAPGKERELVAAISTDGGSTYYADSVKGRFTISRDNAKNTVYLQMNSLKPEDTAVYYCAANRYKRYDYWGQGTQVTVSS”, the “polyreactivity (PSR sort gate)” value is on record as “low polyreactivity”.
“QVQLVESGGGLVQAGGSLRLSCAASGFIFYYNTMGWYRQAPGKERELVASITWSGDTTYYADSVKGRFTISRDNAKNTVYLQMNSLKPEDTAVYYCAAVHYYPYRRYDYWGQGTQVTVSS”: the “polyreactivity (PSR sort gate)” value is recorded as “low polyreactivity”.
For “QVQLVESGGGLVQAGGSLRLSCAASGFIFYYYAMGWYRQAPGKEREFVAGISRSGGSTYYADSVKGRFTISRDNAKNTVYLQMNSLKPEDTAVYYCGEFWTYWGYGQYDYWGQGTQVTVSS”, the “polyreactivity (PSR sort gate)” value is “low polyreactivity”.
“QVQLVESGGGLVQAGGSLRLSCAASGFIFYYYAMGWYRQAPGKERELVAAISSGGSTYYADSVKGRFTISRDNAKNTVYLQMNSLKPEDTAVYYCNARGFYRGYTYYYWGQGTQVTVSS”: the “polyreactivity (PSR sort gate)” value is reported as “high polyreactivity”.
As for “QVQLVESGGGLVQAGGSLRLSCAASGFIFYYYAMGWYRQAPGKERELVAAISSRGGITYYADSVKGRFTISRDNAKNTVYLQMNSLKPEDTAVYYCAVDFRPGYDYWGQGTQVTVSS”, the “polyreactivity (PSR sort gate)” value is recorded as “low polyreactivity”.
On to “QVQLVESGGGLVQAGGSLRLSCAASGFIFYYYAMGWYRQAPGKERELVAAISSSGTSTYYADSVKGRFTISRDNAKYTVYLQMNSLKPEDTAVYYCAAYSSHREDYWGQGTQVTVSS”, for which the “polyreactivity (PSR sort gate)” value is on record as “high polyreactivity”.
Consider “QVQLVESGGGLVQAGGSLRLSCAASGFIFYYYAMGWYRQAPGKERELVATITSGGGTYYADSVKGRFTISRDNAKNTVYVQMISLKPEDTAVYYCAKRDLEQSAFLGYDYWGQGTQVTVSS”, for which the “polyreactivity (PSR sort gate)” value is recorded as “low polyreactivity”.
On to “QVQLVESGGGLVQAGGSLRLSCAASGFIFYYYAMGWYRQAPGKEREMFAAITQGGGSTYYADSVKGRFTISRDNAKNTVYFQMNSLKPEDTAVYYCAAVKRVYAHCRAFSSDFYYWGQGTQVNVSS”, for which the “polyreactivity (PSR sort gate)” value is on record as “high polyreactivity”.
Take “QVQLVESGGGLVQAGGSLRLSCAASGFIFYYYTMGWYRQAPGKERELVAAISSGGSTYYADSVKGRFTISRDNAKNTVYLQMNSLKPEDTAVYYCNKRYPSPEYNYWGQGTQVTVSS”: the “polyreactivity (PSR sort gate)” value is on record as “high polyreactivity”.
For “QVQLVESGGGLVQAGGSLRLSCAASGFIFYYYTMGWYTQAPGKERELVAAISKSGGNTYYADSVKGRFTISRDNAKNTVYLQMNSLKPEVTAVYYCAASRYNTVTYYYSGQGTQVTVSS”, the “polyreactivity (PSR sort gate)” value is on record as “high polyreactivity”.
In the case of “QVQLVESGGGLVQAGGSLRLSCAASGFIIEVNAMGWYRQAPGKERELVARIDWSGGSTYYADSVKGRFTISRDNAKNTVYLQMNSLKPEDTAVYYCNADWTYADPNEYGYWGQGTQVTVSS”, the “polyreactivity (PSR sort gate)” value is recorded as “low polyreactivity”.
For the sequence “QVQLVESGGGLVQAGGSLRLSCAASGFIIGGNPMGWYRQAPGKVRELVAAITGGGSTYYADSVKGRFTISRENAKNTVYLQMNSLKPEDTAVYYCNAGRVLRLAYNYWGQGTQVTVSS”, the “polyreactivity (PSR sort gate)” value is “low polyreactivity”.
For “QVQLVESGGGLVQAGGSLRLSCAASGFIIGSYTMGWYRQAHGKERELVASITKRGGSTYYADSVKGRFTISRDNAKNTVYLQMNSLKPEDTSVYYCAATYWFSHRSRYDYWGQGTQVTVSS”, the “polyreactivity (PSR sort gate)” value is on record as “high polyreactivity”.
As to “QVQLVESGGGLVQAGGSLRLSCAASGFIIKFCAMGLYRQAPGKERELVATITFSSGTTYYADSVKGRFTISRDNAKYTVYLQMNSLKPEDTAVYYCAASTLPAWPYDGPAGPRYDYWGQGTQVTVSS”, the “polyreactivity (PSR sort gate)” value is listed as “low polyreactivity”.
Take “QVQLVESGGGLVQAGGSLRLSCAASGFIIPGYAMGWYRQAPGKERELVAAISRSGTSTYYADSVKGRFTISRDNAKNTVYLQMNSLKPEDTAVYYCAAKPASLSVRGYDYWGQGTQVTVSS”: the “polyreactivity (PSR sort gate)” value is recorded as “high polyreactivity”.
As to “QVQLVESGGGLVQAGGSLRLSCAASGFIIQGNAMGWYRQAPGKERELVAAISSSVSTYYADSVKGRFTISRDNAKNTVYLQMNSLKPEDTAVYYCNAGFPLSLWLGDYWGQGTQVTVSS”, the “polyreactivity (PSR sort gate)” value is “low polyreactivity”.
With “QVQLVESGGGLVQAGGSLRLSCAASGFIISDYAMGWYRQAPGKERELVAVITWRSGSTYYADSVKGRFTISRDNAKNTVYFQMHSLKPVDTAVYYCAARYYRNYSQGRRLGYNYWGQGTQVTVSS”, the “polyreactivity (PSR sort gate)” value was “high polyreactivity”.
The entry for “QVQLVESGGGLVQAGGSLRLSCAASGFIISNNAMGWYRQAPGKERELVAVINGGGSTYYADSVKGRFTISRDTAKNTVYLQMNSLKPEDTAVYYCNADRFADYDYWGQGTQVTVSS” is “low polyreactivity”; for “QVQLVESGGGLVQAGGSLRLSCAASGFIITGNPMGWYRQAPGKERELVAAITSGGNTYYADSVKGRFTISRDNANNTVYLQMNSLKPEDTAVYYCAKYVPHWRILMEYWGQGTQVTVSS” it is “low polyreactivity”; for “QVQLVESGGGLVQAGGSLRLSCAASGFIIVNNAMGWYRQAPGKERELVATISRGGSTNYADSVKGRFTISRDNAKNTVYLQMNSLKPEDTAVYYCNARRSVKVYGVDYWGQGTQVTVSS” it is “high polyreactivity”.
Turning to “QVQLVESGGGLVQAGGSLRLSCAASGFIIVYYAMGWYRQAPGKERELVAAITSSGGSTYYADSVKGRFTISRDNAKNTVYLQMNSLKPEDTAVYYCNRVWYATDFVNTMGYWGQGTQGTVSS”, the “polyreactivity (PSR sort gate)” value was “low polyreactivity”.
Turning to “QVQLVESGGGLVQAGGSLRLSCAASGFIIYFYAMGWYRQAPGKERELVAAINYPGDSTYYADSVKGRFTISRDNAKNTVYLQMNSLKPEDTAVYYCNKVLYNKWPYVTLSAFPTVGYWGQGTQVTVSS”, the “polyreactivity (PSR sort gate)” value was “high polyreactivity”.
In the case of “QVQLVESGGGLVQAGGSLRLSCAASGFILDTYAMGWYRQAPGKERELVAAISASGSSTYYADSVKGRFTISRDNAKNTVYLQMNSLKPEDTAVYYCAAKDTGYGYGFPRLDYWGQGTQVTVSS”, the “polyreactivity (PSR sort gate)” value is given as “low polyreactivity”.
Turning to “QVQLVESGGGLVQAGGSLRLSCAASGFILDYNAMGWYRQAPGKERELVATITGRGDRTYYADSVKGRVTISRDNAKNTVYLQMNSLKPEDTAGYYCAAGFDGSRHPGFDSWGQGTQVTVSS”, the “polyreactivity (PSR sort gate)” value is “low polyreactivity”.
On to “QVQLVESGGGLVQAGGSLRLSCAASGFILDYYAMGWYRQAPGKERELVAANSYSGGSTYYADSVKGRFTISRDNAKNTVYLQMTSLKAEDTGVYYGNAGVLVLLYAYLPSELEYWGQGTQVTVSS”, for which the “polyreactivity (PSR sort gate)” value is reported as “low polyreactivity”.
Then “QVQLVESGGGLVQAGGSLRLSCAASGFILEPNAMGWYRQAPGKERELVATISFSGGGTYYADSVKGRFTISRDNAKNNVYLQMNSLKPEDTAVYYCAAQGRDSDYVDFDYWGQGTQVTVSS”, with “high polyreactivity”.
In the case of “QVQLVESGGGLVQAGGSLRLSCAASGFILGTYAMGWYRQAPGKERELVAAISRSGGSTYYADSVKGRFTISRDNAKNSVYLQMNSLKPEDTAVYYCNTVRVHGFPIDRIYDYWGQGTQVTVSS”, the “polyreactivity (PSR sort gate)” value is listed as “high polyreactivity”.
With “QVQLVESGGGLVQAGGSLRLSCAASGFILGVYAMGWYRQAPGKERELVAAISKSGDSTYYADSVKGRFTISRDNAKNTVYLLMNSLKPEDTAVYYCNADWSWYNYYDFDYWGQGTQVTVSS”, the “polyreactivity (PSR sort gate)” value is listed as “low polyreactivity”.
Take “QVQLVESGGGLVQAGGSLRLSCAASGFILIRNGMGCYRQAPGKERELVAAISRSGRTYYADSVKGRFTISRDNAKNTVYLQMNSLKPEDTAVYYCAKRDYLYGRYDYSGQGTQVTVSS”: the “polyreactivity (PSR sort gate)” value is on record as “high polyreactivity”.
As for “QVQLVESGGGLVQAGGSLRLSCAASGFILKYYAMGWYRQAPGKERELVAAISWSGGSTYYADSVKGRFTISRDNAKNTVYLQMNSLKPEVTAVYYCNAYYVYNSLGYWGQGTQVTVSS”, the “polyreactivity (PSR sort gate)” value is “high polyreactivity”.
For “QVQLVESGGGLVQAGGSLRLSCAASGFILLDNAMGRYRQAPVKEREFVASINISGDRTFYADSVKGRFTISRDNAKNTVYLQMNSLKPEDTAVYYCAKEPGLGRRSTTAYDYWGQGTQVTVSS”, the “polyreactivity (PSR sort gate)” value is on record as “low polyreactivity”.
As to “QVQLVESGGGLVQAGGSLRLSCAASGFILNKNVMGWYRQAPGKERELVAAITASGSSTYYADSVKGRFTISRDNAKNTVYLQMNSLKPEDTAVYYCAARGYWSSYAPRFNYWVQGTQVTVSS”, the “polyreactivity (PSR sort gate)” value is recorded as “high polyreactivity”.
Regarding “QVQLVESGGGLVQAGGSLRLSCAASGFILPNYTMGWYRQAPGKERELVAAISRGGSTNYADSVKGRFTISRDNAKNTVYLQMNSLKPEDTAVYYCAVDAWTGESYWEHYYWGQGTQVTVSS”, the “polyreactivity (PSR sort gate)” value is on record as “low polyreactivity”.
The entry for “QVQLVESGGGLVQAGGSLRLSCAASGFILQTYAMGWYRQAPGKERELVAAITSGARTYYADSVKGRFTISRDNAKNTVYLQMNSLKPEDTAVYYCAASIWLYRYYYWGQGTQVTVSS” is “high polyreactivity”; for “QVQLVESGGGLVQAGGSLRLSCAASGFILRAYAMGWYRQAPGKEREFVAAITRRGGSTYYADSVKGRFTISRDNAKNTVYLQMNSLKPEDTAVYYCAAKFFSSPHNLGYWGQGTQVTVSS” it is “high polyreactivity”.
